Source: US20180326022

Legend:
[1] = target: detyrosinated microtubules (rat cardiomyocytes)
[2] = target: detyrosinated microtubules (human cardiomyocytes)

B1: human tubulin tyrosine ligase (TTL) (protein)
chain: MYTFVVRDENSSVYAEVSRLLLATGHWKRLRRDNPRFNLMLGERNRLPFGRLGHEPGLVQLVNYYRGADKLCRKASLVKLIKTSPELAESCTWFPESYVIYPTNLKTPVAPAQNGIQPPISNSRTDEREFFLASYNRKKEDGEGNVWIAKSSAGAKGEGILISSEASELLDFIDNQGQVHVIQKYLEHPLLLEPGHRKFDIRSWVLVDHQYNIYLYREGVLRTASEPYHVDNFQDKTCHLTNHCIQKEYSKNYGKYEEGNEMFFKEFNQYLTSALNITLESSILLQIKHIIRNCLLSVEPAISTKHLPYQSFQLFGFDFMVDEELKVWLIEVNGAPACAQKLYAELCQGIVDIAISSVFPPPDVEQPQTQPAAFIKL
[1]
  amount of polymerized, detyrosinated MTs (immunofluorescence and immunoblot) after AdV-TTL: 3-4 fold reduction in the amount of polymerized, detyrosinated MTs
  detyr Tubulin, western blotting relative to null, TTL (0.01) (relative to null): 0.74
  detyr Tubulin, western blotting relative to null, TTL (0.1) (relative to null): 0.28
  tyr Tubulin, western blotting relative to null, TTL (0.01) (relative to null): 2.63
  tyr Tubulin, western blotting relative to null, TTL (0.1) (relative to null): 3.32
[2]
  density of dTyr-MTs and dTyr-MT/total MT ratio (immunofluorescence) after AdV-TTL for 48 hrs: decreased the density of dTyr-MTs and the proportion of total MTs that were detyrosinated
